What was measured:
[1] = target: T1, HER2/neu on the surface of target cells (N87, JIMT-1, MCF-7, MDA-MB231) (UniProt P04626 23-1255, limits assumed); assay: flow cytometry on N87 gastric cancer cells, anti-hFc APC MFI
T1 construct: whole, on cells

[2] = target: T2, CD137 on the surface of cells (activated human T cells; engineered CHO cells) (human, UniProt Q07011 24-255); assay: flow cytometry on activated pan T cells gated CD8, anti-hFc APC MFI
T2 construct: whole, on cells; also called human CD137; cell surface expressed CD137

[3] = target: T1, HER2/neu on the surface of target cells …; assay: flow cytometry on N87 cells, anti-hFc APC MFI
[4] = target: T1, HER2/neu on the surface of target cells …; assay: flow cytometry on MCF-7 cells, anti-hFc APC MFI
[5] = target: T1, HER2/neu on the surface of target cells …; assay: flow cytometry on JIMT-1 cells, anti-hFc APC MFI
[6] = target: T2, CD137 on the surface of cells …; assay: flow cytometry on CD137-expressing CHO cells (CHO/137), anti-hFc APC MFI
[7] = target: T3, extracellular portion of human CD137 fused to a histidine-containing peptide (human, UniProt Q07011 24-186); assay: SPR (BIACORE); molecule captured on anti-human Fc; huCD137 6.25-100 nM; 1:1 Langmuir
T3 construct: extracellular domain; also called huCD137; His-tagged soluble human CD137
Procedure: (§1) The amino acid sequences of these clones were incorporated into the 5 chain diabody DART-G to yield optimized DART-G molecules (designated as DART-G1, DART-G2; DART-G3, and DART-G4). The binding affinity of DART-G2, DART-G3, and DART-G4 were evaluated via BIAcore (Table 11). For such evaluation, His-tagged soluble human CD137 (huCD137) or cynomolgus monkey CD137 (cynoCD137) (containing an extracellular portion of human or cynomolgus monkey CD137 fused to a histidine-containing peptide) was passed over a surface coated with immobilized antibody. Briefly, each test molecule was captured onto an F(ab)₂ goat-anti-human Fc-coated surface and then incubated in the presence of different concentrations (6.25-100 nM) of huCD137 or cynoCD137. The kinetics of binding were determined via BIACORE® analysis binding (normalized 1:1 Langmuir binding model).

[8] = target: T4, extracellular portion of cynomolgus monkey CD137 fused to a histidine-containing peptide (cynomolgus monkey, UniProt A9YYE7 24-186); assay: SPR (BIACORE); molecule captured on anti-human Fc; cynoCD137 6.25-100 nM; 1:1 Langmuir
T4 construct: extracellular domain; also called cynoCD137
T4 sequence: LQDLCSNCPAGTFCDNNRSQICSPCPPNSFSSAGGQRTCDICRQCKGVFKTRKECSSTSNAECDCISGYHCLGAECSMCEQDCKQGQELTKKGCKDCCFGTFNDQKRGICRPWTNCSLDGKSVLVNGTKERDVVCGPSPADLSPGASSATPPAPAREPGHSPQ
Procedure: as §1

[9] = target: T2, CD137 on the surface of cells …; assay: flow cytometry on activated pan T cells (donor D46433, CD8 PE), anti-hFc APC MFI
[10] = target: T2, CD137 on the surface of cells …; assay: flow cytometry on activated CD8+ T cells (donor D53781, CD8 FITC), anti-hFc APC MFI
[11] = target: T4, extracellular portion of cynomolgus …; assay: SPR (BIACORE); molecule captured on anti-human Fc; cynoCD137 6.25-100 nM; column head ×10^-4 applied as printed
Procedure: as §1

T2 sequence (Q07011 24-255, change not shown): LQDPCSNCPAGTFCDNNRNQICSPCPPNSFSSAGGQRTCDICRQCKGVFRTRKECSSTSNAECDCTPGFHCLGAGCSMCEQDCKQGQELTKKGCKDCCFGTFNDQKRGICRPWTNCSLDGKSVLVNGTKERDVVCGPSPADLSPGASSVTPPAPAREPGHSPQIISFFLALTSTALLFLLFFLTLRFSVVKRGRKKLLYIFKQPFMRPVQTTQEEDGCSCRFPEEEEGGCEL

B1: DART-1 (bispecific antibody)
chain 1: not shown
chain 2: EIVLTQSPATLSLSPGERATLSCRASQSVSSYLAWYQQKPGQAPRLLIYDASNRATGIPARFSGSGSGTDFTLTISSLEPEDFAVYYCQQRSNWPPALTFGGGTKVEIKGGGSGGGGQVQLVQSGAEVKKPGASVKVSCKASGYTFTNYGMNWVRQAPGQGLEWMGWINTNIGEPTYTEEFKGRVTMTRDTSISTAYMELSRLRSDDTAVYYCARDDGYGNRVSYWGQGTLVTVSSGGCGGGKVAACKEKVAALKEKVAALKEKVAALKE
[1]
  EC50 (read off the curve): ~0.4 nM
[2]
  EC50 (read off the curve): ~0.1 nM

B2: DART-G3 (bispecific antibody, human IgG1, kappa, L234A L235A)
heavy: QVQLVQSGAEVKKPGASVKVSCKASGYTFTNYGMNWVRQAPGQGLEWMGWINTNIGEPTYTEEFKGRVTMTRDTSISTAYMELSRLRSDDTAVYYCARDDGYGNRVSYWGQGTLVTVSSASTKGPSVFPLAPSSKSTSGGTAALGCLVKDYFPEPVTVSWNSGALTSGVHTFPAVLQSSGLYSLSSVVTVPSSSLGTQTYICNVNHKPSNTKVDKRVEPKSCDKTHTCPPCPAPEAAGGPSVFLFPPKPKDTLMISRTPEVTCVVVDVSHEDPEVKFNWYVDGVEVHNAKTKPREEQYNSTYRVVSVLTVLHQDWLNGKEYKCKVSNKALPAPIEKTISKAKGQPREPQVYTLPPSREEMTKNQVSLSCAVKGFYPSDIAVEWESNGQPENNYKTTPPVLDSDGSFFLVSKLTVDKSRWQQGNVFSCSVMHEALHNRYTQKSLSLSPGK
light: DIQMTQSPSSLSASVGDRVTITCKASQDISNYLSWFQQKPGKAPKTLIYRANRLQSGVPSRFSGSGSGTDFTLTISSLQPEDFATYYCLQHDEFPWTFGQGTKLEIKRTVAAPSVFIFPPSDEQLKSGTASVVCLLNNFYPREAKVQWKVDNALQSGNSQESVTEQDSKDSTYSLSSTLTLSKADYEKHKVYACEVTHQGLSSPVTKSFNRGEC
chain 1: QVQLVQSGAEVKKPGASVKVSCKASGYTFTNYGMNWVRQAPGQGLEWMGWINTNIGEPTYTEEFKGRVTMTRDTSISTAYMELSRLRSDDTAVYYCARDDGYGNRVSYWGQGTLVTVSSASTKGPSVFPLAPSSKSTSGGTAALGCLVKDYFPEPVTVSWNSGALTSGVHTFPAVLQSSGLYSLSSVVTVPSSSLGTQTYICNVNHKPSNTKVDKRVEPKSCDKTHTCPPCPAPEAAGGPSVFLFPPKPKDTLMISRTPEVTCVVVDVSHEDPEVKFNWYVDGVEVHNAKTKPREEQYNSTYRVVSVLTVLHQDWLNGKEYKCKVSNKALPAPIEKTISKAKGQPREPQVYTLPPSREEMTKNQVSLWCLVKGFYPSDIAVEWESNGQPENNYKTTPPVLDSDGSFFLYSKLTVDKSRWQQGNVFSCSVMHEALHNHYTQKSLSLSPGGGGSGGGSGGGDIQMTQSPSSLSASVGDRVTITCRPSQDISNYLNWYQQKPDKTVKLLIYYTSRLRSGVPSRFSGSGSGTDFTFTISSLQPEDIATYFCQQGDTLPYTFGQGTKLEIKGGGSGGGGQVQVQLVQSGAEVKKPGASVKVSCKASGYTFTSYWINWVKQAPGQGLEWIGNIYPSDSYTNYNQKFKDKATITADKSTSTAYMELSSLRSEDTAVYYCTRDYGSAYSYSLWGQGTTVTVSSGGCGGGEVAALEKEVAALEKEVAALEKEVAALEK
chain 2: DIQMTQSPSSLSASVGDRVTITCRPSQDISNYLNWYQQKPDKTVKLLIYYTSRLRSGVPSRFSGSGSGTDFTFTISSLQPEDIATYFCQQGDTLPYTFGQGTKLEIKGGGSGGGGQVQLVQSGAEVKKPGASVKVSCKASGYTFTSYWINWVKQAPGQGLEWIGNIYPSDSYTNYNQKFKDKATITADKSTSTAYMELSSLRSEDTAVYYCTRDYGSAYSYSLWGQGTTVTVSSGGCGGGKVAALKEKVAALKEKVAALKEKVAALKE
notes: also called optimized DART-G3
[3]
  EC50 (read off the curve): ~0.5 nM
[4]
  EC50 (read off the curve): ~0.09 nM
[5]
  EC50 (read off the curve): ~0.2 nM
[6]
  EC50 (read off the curve): ~0.02 µg/mL
[7]
  Kd: 64 nM
  koff: 0.014 s⁻¹
  kon: 220000 M⁻¹ s⁻¹
[8]
  Kd: 78 nM
  kon: 230000 M⁻¹ s⁻¹
[9]
  EC50 (read off the curve): ~0.1 nM
[10]
  EC50 (read off the curve): ~0.02 µg/mL
[11]
  koff: 0.018 s⁻¹

B3: DART-F (bispecific antibody, human IgG1, kappa, L234A L235A)
heavy: QVQLVQSGAEVKKPGASVKVSCKASGYTFTNYGMNWVRQAPGQGLEWMGWINTNIGEPTYTEEFKGRVTMTRDTSISTAYMELSRLRSDDTAVYYCARDDGYGNRVSYWGQGTLVTVSSASTKGPSVFPLAPSSKSTSGGTAALGCLVKDYFPEPVTVSWNSGALTSGVHTFPAVLQSSGLYSLSSVVTVPSSSLGTQTYICNVNHKPSNTKVDKRVEPKSCDKTHTCPPCPAPEAAGGPSVFLFPPKPKDTLMISRTPEVTCVVVDVSHEDPEVKFNWYVDGVEVHNAKTKPREEQYNSTYRVVSVLTVLHQDWLNGKEYKCKVSNKALPAPIEKTISKAKGQPREPQVYTLPPSREEMTKNQVSLSCAVKGFYPSDIAVEWESNGQPENNYKTTPPVLDSDGSFFLVSKLTVDKSRWQQGNVFSCSVMHEALHNRYTQKSLSLSPGK
light: DIQMTQSPSSLSASVGDRVTITCKASQDISNYLSWFQQKPGKAPKTLIYRANRLQSGVPSRFSGSGSGTDFTLTISSLQPEDFATYYCLQHDEFPWTFGQGTKLEIKRTVAAPSVFIFPPSDEQLKSGTASVVCLLNNFYPREAKVQWKVDNALQSGNSQESVTEQDSKDSTYSLSSTLTLSKADYEKHKVYACEVTHQGLSSPVTKSFNRGEC
chain 1: QVQLVQSGAEVKKPGASVKVSCKASGYTFTNYGMNWVRQAPGQGLEWMGWINTNIGEPTYTEEFKGRVTMTRDTSISTAYMELSRLRSDDTAVYYCARDDGYGNRVSYWGQGTLVTVSSASTKGPSVFPLAPSSKSTSGGTAALGCLVKDYFPEPVTVSWNSGALTSGVHTFPAVLQSSGLYSLSSVVTVPSSSLGTQTYICNVNHKPSNTKVDKRVEPKSCDKTHTCPPCPAPEAAGGPSVFLFPPKPKDTLMISRTPEVTCVVVDVSHEDPEVKFNWYVDGVEVHNAKTKPREEQYNSTYRVVSVLTVLHQDWLNGKEYKCKVSNKALPAPIEKTISKAKGQPREPQVYTLPPSREEMTKNQVSLWCLVKGFYPSDIAVEWESNGQPENNYKTTPPVLDSDGSFFLYSKLTVDKSRWQQGNVFSCSVMHEALHNHYTQKSLSLSPGGGGSGGGSGGGDIQMTQTTSSLSASLGDRVTISCRASQDISNYLNWYQQKPDGTVKLLIYYTSRLHSGVPSRFSGSGSGTDYSLTISNLEQEDIATYFCQQGNTLPYTFGGGTKLEIKGGGSGGGGQVQLQQPGAELVRPGASVKLSCKASGYTFTSYWINWVKQRPGQGLEWIGNIYPSDSYTNYDQKFKDKATLTVDKSSSTAYMQLSSPTSEDSAVYYCTKSGEYGKIGYYAMDYWGQGTSVTVSSGGCGGGEVAALEKEVAALEKEVAALEKEVAALEK
chain 2: DIQMTQTTSSLSASLGDRVTISCRASQDISNYLNWYQQKPDGTVKLLIYYTSRLHSGVPSRFSGSGSGTDYSLTISNLEQEDIATYFCQQGNTLPYTFGGGTKLEIKGGGSGGGGQVQLQQPGAELVRPGASVKLSCKASGYTFTSYWINWVKQRPGQGLEWIGNIYPSDSYTNYDQKFKDKATLTVDKSSSTAYMQLSSPTSEDSAVYYCTKSGEYGKIGYYAMDYWGQGTSVTVSSGGCGGGKVAALKEKVAALKEKVAALKEKVAALKE
[1]
  EC50 (read off the curve): ~0.5 nM
[2]
  EC50 (read off the curve): ~0.5 nM
